Key:
Assay in all cases: ProtoArray, GST-treated control array;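 also: human protein microarray (about 9500 recombinant proteins) incubated overnight with GST alone plus SAM cofactor as the negative control for G9a SET domain methylation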
[1] = target: ARL6IP1-ADP-ribosylation factor-like 6 interacting protein 1 (ARL6IP1) (human, UniProt Q15041 1-203, limits assumed)
[2] = target: T1, PTCD2-pentatricopeptide repeat domain 2 (PTCD2) (human, UniProt Q8WV60 1-388, limits assumed)
T1 sequence (looked up): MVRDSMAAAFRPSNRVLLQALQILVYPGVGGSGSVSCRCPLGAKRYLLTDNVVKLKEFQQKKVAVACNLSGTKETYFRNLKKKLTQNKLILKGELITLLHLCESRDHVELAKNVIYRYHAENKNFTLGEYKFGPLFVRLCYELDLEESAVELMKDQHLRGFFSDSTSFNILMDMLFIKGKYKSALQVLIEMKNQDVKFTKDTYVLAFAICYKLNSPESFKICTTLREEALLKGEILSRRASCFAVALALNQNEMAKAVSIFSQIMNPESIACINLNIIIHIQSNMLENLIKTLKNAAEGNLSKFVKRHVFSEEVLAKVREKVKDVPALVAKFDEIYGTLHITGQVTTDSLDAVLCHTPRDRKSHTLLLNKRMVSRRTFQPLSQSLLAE

[3] = target: LOC145788-PREDICTED: Homo sapiens hypothetical LOC145788 (LOC145788) (human)
[4] = target: T2, SMAP1-stromal membrane-associated protein 1 (SMAP1) (human, UniProt Q8IYB5 1-467, limits assumed)
T2 sequence (looked up): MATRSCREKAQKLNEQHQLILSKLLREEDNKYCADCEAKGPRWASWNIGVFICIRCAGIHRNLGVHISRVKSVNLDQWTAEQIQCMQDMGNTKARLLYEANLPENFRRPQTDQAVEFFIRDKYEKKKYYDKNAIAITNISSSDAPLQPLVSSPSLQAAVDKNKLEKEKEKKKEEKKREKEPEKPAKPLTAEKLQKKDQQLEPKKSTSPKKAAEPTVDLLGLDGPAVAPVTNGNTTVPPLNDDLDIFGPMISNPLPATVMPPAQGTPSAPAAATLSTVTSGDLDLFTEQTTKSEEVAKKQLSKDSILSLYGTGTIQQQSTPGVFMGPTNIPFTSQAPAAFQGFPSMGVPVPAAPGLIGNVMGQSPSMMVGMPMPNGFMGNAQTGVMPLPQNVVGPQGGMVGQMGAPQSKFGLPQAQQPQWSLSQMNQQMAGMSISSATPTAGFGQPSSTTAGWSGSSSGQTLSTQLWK

[5] = target: N/A-cDNA clone IMAGE:4623222, partial cds (human)
CTXN1-cortexin 1 (CTXN1) = target: T3, CTXN1-cortexin 1 (CTXN1) (human, UniProt P60606 1-82)
T3 sequence (looked up): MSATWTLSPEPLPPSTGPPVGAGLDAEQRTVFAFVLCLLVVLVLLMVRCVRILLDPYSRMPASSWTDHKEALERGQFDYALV

[6] = target: T4, C10orf58-chromosome 10 open reading frame 58 (C10orf58) (human, UniProt Q9BRX8 1-229, limits assumed)
T4 sequence (looked up): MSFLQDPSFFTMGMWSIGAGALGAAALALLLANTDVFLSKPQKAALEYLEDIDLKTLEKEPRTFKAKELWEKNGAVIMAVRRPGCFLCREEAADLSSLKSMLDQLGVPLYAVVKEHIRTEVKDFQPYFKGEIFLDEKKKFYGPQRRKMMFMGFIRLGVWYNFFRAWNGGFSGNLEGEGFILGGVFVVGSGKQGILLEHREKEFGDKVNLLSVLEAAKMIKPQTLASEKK

[7] = target: T5, SMYD5-SMYD family member 5 (SMYD5) (human, UniProt Q6GMV2 1-418)
T5 sequence (looked up): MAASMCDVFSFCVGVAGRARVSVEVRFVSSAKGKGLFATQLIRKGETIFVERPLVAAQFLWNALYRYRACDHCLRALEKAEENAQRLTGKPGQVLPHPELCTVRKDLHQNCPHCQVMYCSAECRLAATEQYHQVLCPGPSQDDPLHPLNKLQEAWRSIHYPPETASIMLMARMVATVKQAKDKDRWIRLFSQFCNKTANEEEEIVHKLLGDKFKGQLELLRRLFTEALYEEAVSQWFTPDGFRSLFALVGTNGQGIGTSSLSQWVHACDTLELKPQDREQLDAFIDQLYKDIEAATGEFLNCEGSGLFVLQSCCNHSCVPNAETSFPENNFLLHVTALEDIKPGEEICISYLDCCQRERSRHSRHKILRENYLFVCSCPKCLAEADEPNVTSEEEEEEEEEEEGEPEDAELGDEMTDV

[8] = target: T6, RAB33B-RAB33B, member RAS oncogene family (RAB33B) (human, UniProt Q9H082 1-229)
T6 sequence (looked up): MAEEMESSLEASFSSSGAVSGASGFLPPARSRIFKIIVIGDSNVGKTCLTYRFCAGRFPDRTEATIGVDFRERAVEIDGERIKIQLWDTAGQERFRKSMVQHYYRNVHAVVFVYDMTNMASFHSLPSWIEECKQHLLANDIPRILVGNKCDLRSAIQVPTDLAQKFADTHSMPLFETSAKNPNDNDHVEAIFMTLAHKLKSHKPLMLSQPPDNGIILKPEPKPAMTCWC

ARL6IP1-ADP-ribosylation factor-like 6 interacting protein 1 (ARL6IP1), sequence (Q15041 whole entry, the tested form may be a part): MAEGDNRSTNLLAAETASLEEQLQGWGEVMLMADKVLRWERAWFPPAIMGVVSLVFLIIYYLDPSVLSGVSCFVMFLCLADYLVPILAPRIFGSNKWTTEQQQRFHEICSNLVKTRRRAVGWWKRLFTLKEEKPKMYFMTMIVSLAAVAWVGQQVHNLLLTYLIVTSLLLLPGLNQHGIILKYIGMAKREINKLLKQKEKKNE

B1: 3× Flag-3×MBT (designed binder)
chain: EEWSSSQPATGEKKECWSWESYLEEQKAITAPVSLFQDSQAVTHNKNGFKLGMKLEGIDPQHPSMYFILTVAEVCGYRLRLHFDGYSECHDFWVNANSPDIHPAGWFEKTGHKLQPPKGYKEEEFSWSQYLRSTRAQAAPKHLFVSQSHSPPPLGFQVGMKLEAVDRMNPSLVCVASVTDVVDSRFLVHFDNWDDTYDYWCDPSSPYIHPVGWCQKQGKPLTPPQDYPDPDNFCWEKYLEETGASAVPTWAFKVRPPHSFLVNMKLEAVDRRNPALIRVASVEDVEDHRIKIHFDGWSHGYDFWIDADHPDIHPAGWCSKTGHPLQPPLGPREPSSASPGG
notes: also called Flag-tagged 3×MBT; 3xFlag-3xMBT; not shown: made by PreScission cleavage of GST-3× Flag-3×MBT
GST Average SNR [1]: 1.05 | GST Average SNR [2]: 0.679 | GST Average SNR [3]: 0.224 | GST Average SNR [4]: 1.37 | GST Average SNR [5]: 1.04 | GST Average SNR (CTXN1-cortexin 1 (CTXN1)): 1 | GST Average SNR [6]: 0.966 | GST Average SNR [7]: 1.16 | GST Average SNR [8]: 0.0035

Source: US20140274782A1 (Stanford University, published 2014)
